Test results: patent US6821739B2, “Methods of diagnosing and treating Crohn's disease using Pseudomonas antigens” (The Regents of the University of California, priority 2000, dated 2004)

Test system: CD4+ T cells from C57BL/6J mice
Format: cell-based, mouse
Details: 72 hours

B1: PFTR: P. fluorescens polypeptide of 198 amino acids (SEQ ID NO: 5), similar to bacterial ferrodoxins (protein)
chain: MRTMVDSGQLTDPESARGKLLQTAAHLFRNKGFERTTVRDLASAVGIQSGSIFHHFKSKDEILRAVMEETTHYNTAMMRASLEEASTVRERVLALIRCKLQSIMGGSGEAMAVLVYEWRSLSAEGQAHVLALRDVYEQIWLQVLGEAKAAGYIRGDVFITRRFLTGALSWTTTWFRAQGSLTLEELAEEALLMVLKSD
modifications: P. fluorescens
Which “stimulation of CD4+ T cell proliferation” value does the source give for B1 here?
Its value is “strongly stimulated”.
